In PMC9860668:

Molecular target: rabbit muscle F-actin (rabbit) (UniProt P68135)
Test: single-molecule force spectroscopy (scanning force microscopy); Imp-PM19 or ∆D3 mutant covalently bound through a PEG crosslinker to the SFM tip; F-actin_(rabbit) with unlabeled phalloidin immobilised on poly-l-lysine mica; F-buffer pH 6.8; set point 800 pN; retraction speed 2 µm/s; 1000 curves; WLC fit

For “Imp-PM19-His (immunodominant membrane protein of 'Candidatus Phytoplasma mali' strain PM19, His-tagged) (natural protein)”, the interaction force was 40 to 400 pN, the maximal work of adhesion was 4.5 to 5 aJ and the most frequently observed adhesion was 80 to 90 pN. It also gave a rupture force of 100 pN.
